Tests used:
Assay in all cases: pull-down
[1] = molecular target: T1, Flag-tagged Pds5b, co-expressed with Δ86-cyclin A2 (human, UniProt Q9NTI5 1-1447)
T1 sequence: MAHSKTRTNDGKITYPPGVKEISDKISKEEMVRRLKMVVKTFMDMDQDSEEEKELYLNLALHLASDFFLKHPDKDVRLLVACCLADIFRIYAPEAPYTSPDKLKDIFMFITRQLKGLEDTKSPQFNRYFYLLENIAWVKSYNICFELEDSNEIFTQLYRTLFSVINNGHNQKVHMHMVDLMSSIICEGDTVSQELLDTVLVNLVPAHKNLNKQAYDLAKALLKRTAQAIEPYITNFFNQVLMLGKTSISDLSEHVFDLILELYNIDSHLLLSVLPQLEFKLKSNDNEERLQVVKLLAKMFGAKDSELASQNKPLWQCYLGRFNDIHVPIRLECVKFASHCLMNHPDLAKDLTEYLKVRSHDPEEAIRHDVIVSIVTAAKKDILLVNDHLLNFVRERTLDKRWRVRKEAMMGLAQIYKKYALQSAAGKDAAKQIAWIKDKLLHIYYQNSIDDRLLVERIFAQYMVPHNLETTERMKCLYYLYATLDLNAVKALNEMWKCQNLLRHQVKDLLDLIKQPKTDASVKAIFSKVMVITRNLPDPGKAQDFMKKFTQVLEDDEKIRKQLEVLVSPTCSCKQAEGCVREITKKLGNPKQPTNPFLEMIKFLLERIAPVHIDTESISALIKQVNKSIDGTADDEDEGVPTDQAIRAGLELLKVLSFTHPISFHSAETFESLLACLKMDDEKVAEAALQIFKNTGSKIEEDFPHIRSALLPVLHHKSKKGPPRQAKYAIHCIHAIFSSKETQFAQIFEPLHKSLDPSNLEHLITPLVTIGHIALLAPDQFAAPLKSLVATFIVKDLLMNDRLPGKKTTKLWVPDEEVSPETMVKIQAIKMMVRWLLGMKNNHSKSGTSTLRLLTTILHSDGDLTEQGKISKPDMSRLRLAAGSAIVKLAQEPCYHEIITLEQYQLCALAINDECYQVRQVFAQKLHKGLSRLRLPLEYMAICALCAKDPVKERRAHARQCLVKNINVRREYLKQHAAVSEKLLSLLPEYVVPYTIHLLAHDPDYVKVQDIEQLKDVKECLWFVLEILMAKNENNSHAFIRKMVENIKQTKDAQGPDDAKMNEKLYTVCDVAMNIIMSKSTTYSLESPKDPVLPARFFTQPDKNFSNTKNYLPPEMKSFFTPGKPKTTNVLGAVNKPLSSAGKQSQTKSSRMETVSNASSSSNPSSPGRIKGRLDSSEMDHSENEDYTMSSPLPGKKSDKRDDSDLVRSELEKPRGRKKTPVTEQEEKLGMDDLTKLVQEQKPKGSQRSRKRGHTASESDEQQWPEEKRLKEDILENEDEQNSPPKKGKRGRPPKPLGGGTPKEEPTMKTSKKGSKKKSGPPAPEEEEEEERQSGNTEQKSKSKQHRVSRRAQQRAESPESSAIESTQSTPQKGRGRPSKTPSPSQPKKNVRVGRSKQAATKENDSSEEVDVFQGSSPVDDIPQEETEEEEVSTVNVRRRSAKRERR

[2] = molecular target: T2, Flag-tagged Pds5b, co-expressed with Nek2aΔMR and Δ86-cyclin A2 (human, UniProt Q9NTI5 1-1447)
T2 sequence: T1 sequence

Flag-tagged Pds5a = molecular target: T3, Flag-tagged Pds5a (human, UniProt Q29RF7 1-1337)
T3 sequence: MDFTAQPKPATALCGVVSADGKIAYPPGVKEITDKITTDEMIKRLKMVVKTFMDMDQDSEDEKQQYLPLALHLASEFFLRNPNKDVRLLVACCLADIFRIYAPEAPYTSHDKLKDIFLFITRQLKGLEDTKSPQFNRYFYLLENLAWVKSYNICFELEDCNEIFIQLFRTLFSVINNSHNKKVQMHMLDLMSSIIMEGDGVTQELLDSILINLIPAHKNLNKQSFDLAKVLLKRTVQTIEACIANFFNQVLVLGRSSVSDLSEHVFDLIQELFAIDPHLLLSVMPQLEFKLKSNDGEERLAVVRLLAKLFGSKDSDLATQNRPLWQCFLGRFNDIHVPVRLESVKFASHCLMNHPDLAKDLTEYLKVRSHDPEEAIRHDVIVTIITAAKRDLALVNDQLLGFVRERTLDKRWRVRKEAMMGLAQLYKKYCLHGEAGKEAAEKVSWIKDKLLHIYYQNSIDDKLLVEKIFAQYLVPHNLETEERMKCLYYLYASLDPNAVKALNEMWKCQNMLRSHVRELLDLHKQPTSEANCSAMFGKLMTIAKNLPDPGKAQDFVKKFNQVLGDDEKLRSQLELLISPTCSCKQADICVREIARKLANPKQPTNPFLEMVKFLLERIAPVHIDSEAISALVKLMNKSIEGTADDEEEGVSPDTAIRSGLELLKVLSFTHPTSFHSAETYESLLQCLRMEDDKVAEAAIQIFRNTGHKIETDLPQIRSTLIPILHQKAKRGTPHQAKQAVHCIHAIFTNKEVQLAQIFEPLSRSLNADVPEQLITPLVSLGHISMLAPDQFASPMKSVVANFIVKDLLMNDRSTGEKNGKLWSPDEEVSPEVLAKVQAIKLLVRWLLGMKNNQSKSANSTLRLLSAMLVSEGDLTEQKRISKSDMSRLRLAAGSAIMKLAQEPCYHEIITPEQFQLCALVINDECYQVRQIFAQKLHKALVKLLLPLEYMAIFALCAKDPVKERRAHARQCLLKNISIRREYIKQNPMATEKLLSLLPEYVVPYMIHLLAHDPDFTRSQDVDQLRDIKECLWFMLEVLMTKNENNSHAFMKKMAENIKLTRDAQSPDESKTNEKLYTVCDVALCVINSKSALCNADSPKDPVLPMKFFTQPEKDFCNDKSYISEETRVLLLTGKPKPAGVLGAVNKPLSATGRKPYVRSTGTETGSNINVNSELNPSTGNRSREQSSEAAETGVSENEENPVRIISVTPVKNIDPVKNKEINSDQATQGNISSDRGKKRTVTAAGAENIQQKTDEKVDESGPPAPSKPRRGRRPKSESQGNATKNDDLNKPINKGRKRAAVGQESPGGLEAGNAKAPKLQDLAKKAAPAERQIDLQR

Measured: binding result

B1: recombinant human Wapl (natural protein)
chain: MTSRFGKTYSRKGGNGSSKFDEVFSNKRTTLSTKWGETTFMAKLGQKRPNFKPDIQEIPKKPKVEEESTGDPFGFDSDDESLPVSSKNLAQVKCSSYSESSEAAQLEEVTSVLEANSKISHVVVEDTVVSDKCFPLEDTLLGKEKSTNRIVEDDASISSCNKLITSDKVENFHEEHEKNSHHIHKNADDSTKKPNAETTVASEIKETNDTWNSQFGKRPESPSEISPIKGSVRTGLFEWDNDFEDIRSEDCILSLDSDPLLEMKDDDFKNRLENLNEAIEEDIVQSVLRPTNCRTYCRANKTKSSQGASNFDKLMDGTSQALAKANSESSKDGLNQAKKGGVSCGTSFRGTVGRTRDYTVLHPSCLSVCNVTIQDTMERSMDEFTASTPADLGEAGRLRKKADIATSKTTTRFRPSNTKSKKDVKLEFFGFEDHETGGDEGGSGSSNYKIKYFGFDDLSESEDDEDDDCQVERKTSKKRTKTAPSPSLQPPPESNDNSQDSQSGTNNAENLDFTEDLPGVPESVKKPINKQGDKSKENTRKIFSGPKRSPTKAVYNARHWNHPDSEELPGPPVVKPQSVTVRLSSKEPNQKDDGVFKAPAPPSKVIKTVTIPTQPYQDIVTALKCRREDKELYTVVQHVKHFNDVVEFGENQEFTDDIEYLLSGLKSTQPLNTRCLSVISLATKCAMPSFRMHLRAHGMVAMVFKTLDDSQHHQNLSLCTAALMYILSRDRLNMDLDRASLDLMIRLLELEQDASSAKLLNEKDMNKIKEKIRRLCETVHNKHLDLENITTGHLAMETLLSLTSKRAGDWFKEELRLLGGLDHIVDKVKECVDHLSRDEDEEKLVASLWGAERCLRVLESVTVHNPENQSYLIAYKDSQLIVSSAKALQHCEELIQQYNRAEDSICLADSKPLPHQNVTNHVGKAVEDCMRAIIGVLLNLTNDNEWGSTKTGEQDGLIGTALNCVLQVPKYLPQEQRFDIRVLGLGLLINLVEYSARNRHCLVNMETSCSFDSSICSGEGDDSLRIGGQVHAVQALVQLFLERERAAQLAESKTDELIKDAPTTQHDKSGEWQETSGEIQWVSTEKTDGTEEKHKKEEEDEELDLNKALQHAGKHMEDCIVASYTALLLGCLCQESPINVTTVREYLPEGDFSIMTEMLKKFLSFMNLTCAVGTTGQKSISRVIEYLEHC
binds: all assays above

— publication doi:10.1101/2024.03.12.584565 (bioRxiv, 2024)
